One protein from paper PMC7583084, “Biochemical Characterization of a Flavonoid O-methyltransferase from Perilla Leaves and Its Application in 7-Methoxyflavonoid Production” (Molecules, 2020) can be followed below.

Common to all, as to settings: co-substrate SAM (100 µM in activity assay), 20 mM Tris-HCl pH 7.5, 37 °C, substrate 0.5-100 µM
Substrate in the data set “purified protein”: O=c1cc(-c2ccc(O)cc2)oc2cc(O)cc(O)c12
Briefly: purified protein.

Substrate in data set [1]: O=C1C[C@@H](c2ccc(O)c(O)c2)Oc2cc(O)cc(O)c21
In words: HPLC assay of 7-O-methylation. The data set is classed as biochemical, Perilla frutescens.

Substrate in data set [2]: O=C1C[C@@H](c2ccc(O)cc2)Oc2cc(O)cc(O)c21
Briefly: HPLC assay of 7-O-methylation. The class given is biochemical, Perilla frutescens.

Substrate in data set [3]: O=c1c(O)c(-c2ccc(O)cc2)oc2cc(O)cc(O)c12
In words: HPLC assay of 7-O-methylation. The class given is biochemical, Perilla frutescens.

Substrate in data set [4]: O=c1cc(-c2ccc(O)c(O)c2)oc2cc(O)cc(O)c12
Briefly: HPLC assay of 7-O-methylation. The data set is classed as biochemical, Perilla frutescens.

Substrate in data set [5]: O=c1cc(-c2ccccc2)oc2cc(O)cc(O)c12
Briefly: HPLC assay of 7-O-methylation. The class given is biochemical, Perilla frutescens.

B1: PfOMT3 (Perilla frutescens) (protein)
chain: MKNSSTDEDLSIFAMQVATSSIVPRALKAVIELDLLEMMKKAGRPLSTSEMAAQIQATNPEAALMIDRILRVLIASNILECTTAASHGGAERLYSLAPVCKFFTKNDDGVSWAPLFLMIQDRVFTEAWDHVKDAIVEGGIPFNIAHGMSGFEYPATDPRYNKIFNQAMSDESTMFMHKILELYDGFDGLKSVVDVGGGIGASLKMIITKYPSIQAINFDLPHVIQNAPSHPGLEHRSGDMFVSVPTGDAILLKWIIHNWSDGHCLKLLKNCYEALPEKGKVIIADRILPETENYKEASASVDLAGDALMLTLFTGGKERAEAEFQALAKASGFKHFRKVCCAFSTWIMELYK
notes: primers encode MKNSSTD at start and IMELYK at end
With B1, the Km in “purified protein” was 3.72 ± 0.05 µM; in data set [1], 13.08 ± 1.42 µM; in data set [2] it was 13.40 ± 1.29 µM; in data set [3], 17.88 ± 0.49 µM; in data set [4], 34.21 ± 4.65 µM; in data set [5], 1.31 ± 0.25 µM. For the same protein, the Vmax was 0.0133 µmol/min/mg in “purified protein”; 0.00784 µmol/min/mg in data set [1]; 0.0517 µmol/min/mg in data set [2]; 0.00581 µmol/min/mg in data set [3]; 0.00418 µmol/min/mg in data set [4]; 0.00205 µmol/min/mg in data set [5]. The kcat is 0.0091 s⁻¹ in “purified protein”; 0.00535 s⁻¹ in data set [1]; 0.0353 s⁻¹ in data set [2]; 0.00397 s⁻¹ in data set [3]; 0.00285 s⁻¹ in data set [4]; 0.0014 s⁻¹ in data set [5]. Besides, the kcat/Km in “purified protein” came to 2440 M⁻¹ s⁻¹; in data set [1], 409 M⁻¹ s⁻¹; in data set [2], 2630 M⁻¹ s⁻¹; in data set [3] it was 222 M⁻¹ s⁻¹; in data set [4], 83.4 M⁻¹ s⁻¹; in data set [5], 1070 M⁻¹ s⁻¹.

The term Km denotes the substrate concentration at which the rate is half of its maximum. The Vmax is the rate approached at saturating substrate. As usually defined, the kcat is the maximal rate divided by the concentration of active sites. What is called kcat/Km is the turnover number divided by the Michaelis constant.
